Measured values from patent US6307020A, “Intracellular antifreeze polypeptides and nucleic acids” (HSC Research and Development Ltd. Partnership, priority 1998, dated 2001).

Key:
[1] = Circular dichroism and thermal denaturation of liver and skin AFPs; format: physicochemical; conditions: for Tm (temperature at which fraction helix is 0.5): thermal denaturation 0-60° C., CD
Method: CD spectra were measured using a Jasco J-600 spectropolarimeter. A water-jacketed (0.1 cm) quartz cell was used. Concentrations of peptides were calculated from UV-absorbance at 230 nm (OD230 =6.1 mM/L peptide-bonds). The concentrations of peptides for CD measurement were between 0.1-0.2 mg/ml in 0.1M NH4 HCO3, pH 8.5. Thermal denaturation of the peptides were measured by varying temperatures from 0-60° C. with a 5° C. step gradient. After CD measurement at 60° C., the samples were cooled to 0° C. and the extent of refolding was determined. The mean residue ellipticity at a given wavelength [q]1 was expressed in degree cm^2 dmol^-1. Fraction helix was calculated as described by Greenfield and Fasman (1969) Biochemistry 8, 4108-4116, employing 222 nm instead of 208 nm: [formula]
The ellipticity [q]222^coil of each peptide in 6.0 M guanidine hydrochloride at 25° C. was assumed to represent 0% helix formation, and the ellipticity for [q]222^helix 100% helix formation was calculated from J. T. Yang et al. (1986) Methods in Enzymology 130, 208-269: [q]^n= [q]^.infin. (1-k/n); where n is the chain length and k is a wavelength-dependent factor (at 222 nm k=2.5 and [q].infin.=-37,400 degree cm^2 dmol^-1).

[2] = Antifreeze activity measured as thermal hysteresis with a Clifton Nanoliter Osmometer; format: physicochemical
Method: The preferred method of measuring the activity of a skin type AFP is to measure the thermal hysteresis (the difference between the melting and freezing temperatures) of an aqueous solution containing the AFP. This can be done by performing a serial dilution of the AFP-containing aqueous solution, followed by cooling the solution gradually and monitoring the freezing point of the solution. Typically, this is performed using commercially available equipment designed specifically for this purpose, such as nanoliter osmoineter. See, Kao et al. (1986) Can. J. Zool. 64:578-582. A preferred osmometer is the Clifton Nanoliter Osmoineter (Clifton Technical Physics, Hartford, N.Y.). Instructions for using the equipment to perform thermal hysteresis are available from the manufacturer. […]
The activity of a skin-type AFP can be measured using a nanoliter osmometer. Antifreeze activity was measured as thermal hysteresis (the difference between the melting and freezing temperatures), essentially following the procedure of Chakrabartty et al. (1989) J. Biol. Chem. 264: 11313-11316. Proteins were dissolved in 0.1 M NH4 HCO3 and their concentrations were determined by duplicate amino acid analyses. […]
Antifreeze activity was measured as thermal hysteresis (difference between the melting and freezing temperatures) essentially following the procedure of Chakrabartty et al. (1989) J. Biol. Chem. 264, 11307-11312. […]

With “sAFP2: skin-type AFP from winter flounder, MDAPAKAAAA TAAAAKAAAEA TAAAAAKAAAA TKAGAAR, SEQ ID NO: 18; identical to protein encoded by F2 (MDAPAKAAAATAAAAKAAAEATAAAAAKAAAATKAGAAR)” the “Fraction Helix” value ([1]; 0° C., pH 8.5, 0.1M NH4HCO3, calculated from ellipticity at 222 nm) was 0.61, the “helical content by circular dichroism” value ([1]; at 0° C.) was 61% and the “[Θ]222 mean residue ellipticity” value ([1]; measured at 0° C., pH 8.5, 0.1M NH4HCO3) was -21,677 deg cm^2 dmol^-1. For the same substance, the “Tm (temperature at which fraction helix is 0.5)” value [1] was 12 °C, the “Tm (temperature at which fraction helix is 0.5)” value ([1]; listed as SAFP2) was 12.0 °C and the “antifreeze activity (thermal hysteresis) compared with serum AFP HPLC-6” value ([2]; dilutions 0.1 to 7.0 mM in 0.1 M NH4HCO3, FIG. 3) was “less than half of that observed for HPLC-6”. The “antifreeze activity of GST-sAFP2 fusion protein compared with sAFP2” value ([2]; nanoliter osmometer, 0.1 M NH4HCO3) was “indistinguishable”.
